Test results reported in article PMC13499124, “Insights into how JIP3 and JIP4 adaptor proteins relieve the auto-inhibited form of the kinesin-1 motor” (The Journal of Biological Chemistry, 2026).

What was measured:
[1] = target: T1, KIF5B-CC3b-CC4 fragment, 6-histidine tag removed (human, UniProt P33176 771-914); experiment: MST + other fluorescence titration; JIP3-N-RH1-lz3 wild type and alanine mutants labelled with NHS-fluorescein, constant at 20 nM; KIF5B-CC3b-CC4 without His tag titrated; 50 mM Tris pH 8.0, 200 mM NaCl, 10 mM MgCl2, 0.05% Tween 20; room temperature; Monolith NT.115; the change in overall fluorescence intensity was used for the Kd; 1:1 fit; conditions: both partners purified
T1 construct: kinesin-1 heavy chain KIF5B, human, NP_004512.1, residues 771-914 (last part of CC3 and CC4); source: E. coli Rosetta, purified (His-Trap, Superdex 75 gel filtration); not shown: His6, N-terminal, cleaved
T1 sequence (P33176 771-914): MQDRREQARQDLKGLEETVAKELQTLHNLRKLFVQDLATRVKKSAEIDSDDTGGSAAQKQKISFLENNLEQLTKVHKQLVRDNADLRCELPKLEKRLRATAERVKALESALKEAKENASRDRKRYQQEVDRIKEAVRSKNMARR

[2] = target: T2, KIF5B-CC3b-CC4-dt fragment (human, UniProt P33176 771-963); experiment: MST; labelled JIP3/4 fragment (Blue-NHS dye) constant at 20 nM, KIF5B fragment titrated 120 pM to 4 uM (up to 38.2 uM when needed); 50 mM Tris pH 8.0, 200 mM NaCl, 10 mM MgCl2, 0.05% Tween 20; room temperature; Monolith NT.115, premium capillaries, MST-on 0.5-1.5 s; 1:1 Kd fit; three replicates; the paper calls its affinities relative measurements; conditions: both partners purified
T2 construct: kinesin-1 heavy chain KIF5B, human, NP_004512.1, residues 771-963 (last part of CC3, CC4 and distal tail); pET28 plasmid, NdeI/XhoI; the methods call it CC3-CC4-dt; also called KIF5B-CC3-CC4-dt; KIF5B-Tail; source: E. coli Rosetta, purified (His-Trap, Superdex 75 gel filtration); not shown: His6, N-terminal, kept
T2 sequence (P33176 771-963): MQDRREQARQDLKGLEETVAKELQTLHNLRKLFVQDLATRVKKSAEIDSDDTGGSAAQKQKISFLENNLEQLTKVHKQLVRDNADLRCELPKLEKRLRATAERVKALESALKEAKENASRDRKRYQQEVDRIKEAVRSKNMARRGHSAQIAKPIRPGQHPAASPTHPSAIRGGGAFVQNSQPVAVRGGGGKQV

[3] = target: the molecule itself; experiment: SEC-MALS; JIP3/4-Nter fragments in solution, single peak; dimer; conditions not shown (Fig. S1B, Table S2)
[4] = target: T2, KIF5B-CC3b-CC4-dt fragment; experiment: MST; labelled JIP3/4 fragment (Blue-NHS dye) constant at 20 nM, KIF5B fragment titrated 120 pM to 4 uM (up to 38.2 uM when needed); 50 mM Tris pH 8.0, 200 mM NaCl, 10 mM MgCl2, 0.05% Tween 20; room temperature; Monolith NT.115, premium capillaries, MST-on 0.5-1.5 s; 1:1 Kd fit; three replicates; the paper calls its affinities relative measurements; conditions: both partners purified; remark: listed apart in the source

Row | Binder | Kd [1] | Kd [2] | also measured
1 | JIP3-N-RH1-lz3 R38A (domain or fragment, mouse, UniProt Q9ESN9-1 1-100, looked up, labelled with NHS-fluorescein (Thermo Fisher Scientific), JIP3, mouse, NP_038959.2, residues 1-100 (N-RH1-lz3); also called JIP3-R38A; source: E. coli Rosetta, purified (His-Trap, gel filtration, thrombin cleavage, gel filtration); not shown: His tag, N-terminal, cleaved; thioredoxin, N-terminal, cleaved) MMEIQMDEGGGVVVYQDDYCSGSVMSERVSGLAGSIYAEFERLIHCYDEEVVKELMPLVVNVLENLDSVLSENQEHEVELELLREDNEQLLTQYEREKAL | 151 ± 27.8 nM |  | 
2 | JIP3-N-RH1-lz3 N61A (domain or fragment, mouse, UniProt Q9ESN9-1 1-100, looked up, labelled with a fluorescent dye in the MST assay (legend of Figure 4), JIP3, mouse, NP_038959.2, residues 1-100 (N-RH1-lz3), residue changed to that of JIP4; also called JIP3-N61A; Asn61 mutant; source: E. coli Rosetta, purified (His-Trap, gel filtration, thrombin cleavage, gel filtration); not shown: His tag, N-terminal, cleaved; thioredoxin, N-terminal, cleaved) MMEIQMDEGGGVVVYQDDYCSGSVMSERVSGLAGSIYREFERLIHCYDEEVVKELMPLVVAVLENLDSVLSENQEHEVELELLREDNEQLLTQYEREKAL |  | 29.9 ± 3 nM | 
3 | JIP3-N-RH1-lz3 E41A (domain or fragment, mouse, UniProt Q9ESN9-1 1-100, looked up, labelled with NHS-fluorescein (Thermo Fisher Scientific), JIP3, mouse, NP_038959.2, residues 1-100 (N-RH1-lz3); also called JIP3-E41A; source: E. coli Rosetta, purified (His-Trap, gel filtration, thrombin cleavage, gel filtration); not shown: His tag, N-terminal, cleaved; thioredoxin, N-terminal, cleaved) MMEIQMDEGGGVVVYQDDYCSGSVMSERVSGLAGSIYREFARLIHCYDEEVVKELMPLVVNVLENLDSVLSENQEHEVELELLREDNEQLLTQYEREKAL | 204 ± 57.8 nM |  | 
4 | JIP3-N-RH1-lz3 L70F-S71A-E72Q-N73D (domain or fragment, mouse, UniProt Q9ESN9-1 1-100, looked up, labelled with a fluorescent dye in the MST assay (legend of Figure 4), JIP3, mouse, NP_038959.2, residues 1-100 (N-RH1-lz3), residues changed to those of JIP4; also called JIP3-L70F-S71A-E72Q-N73D; source: E. coli Rosetta, purified (His-Trap, gel filtration, thrombin cleavage, gel filtration); not shown: His tag, N-terminal, cleaved; thioredoxin, N-terminal, cleaved) MMEIQMDEGGGVVVYQDDYCSGSVMSERVSGLAGSIYREFERLIHCYDEEVVKELMPLVVNVLENLDSVFAQDQEHEVELELLREDNEQLLTQYEREKAL |  | 47.5 ± 4.6 nM | 
5 | JIP3-N-RH1-lz3 H45G-C46R (domain or fragment, mouse, UniProt Q9ESN9-1 1-100, looked up, labelled with a fluorescent dye in the MST assay (legend of Figure 4), JIP3, mouse, NP_038959.2, residues 1-100 (N-RH1-lz3), residues changed to those of JIP4; also called JIP3-H45G-C46R; source: E. coli Rosetta, purified (His-Trap, gel filtration, thrombin cleavage, gel filtration); not shown: His tag, N-terminal, cleaved; thioredoxin, N-terminal, cleaved) MMEIQMDEGGGVVVYQDDYCSGSVMSERVSGLAGSIYREFERLIGRYDEEVVKELMPLVVNVLENLDSVLSENQEHEVELELLREDNEQLLTQYEREKAL |  | 198 ± 27.3 nM | 
6 | JIP3-N-RH1-lz3 N65A (domain or fragment, mouse, UniProt Q9ESN9-1 1-100, looked up, labelled with NHS-fluorescein (Thermo Fisher Scientific), JIP3, mouse, NP_038959.2, residues 1-100 (N-RH1-lz3); also called JIP3-N65A; source: E. coli Rosetta, purified (His-Trap, gel filtration, thrombin cleavage, gel filtration); not shown: His tag, N-terminal, cleaved; thioredoxin, N-terminal, cleaved) MMEIQMDEGGGVVVYQDDYCSGSVMSERVSGLAGSIYREFERLIHCYDEEVVKELMPLVVNVLEALDSVLSENQEHEVELELLREDNEQLLTQYEREKAL | 118 ± 23 nM |  | 
7 | JIP3-N-RH1-lz3 E27A (domain or fragment, mouse, UniProt Q9ESN9-1 1-100, looked up, labelled with NHS-fluorescein (Thermo Fisher Scientific), JIP3, mouse, NP_038959.2, residues 1-100 (N-RH1-lz3); also called JIP3-E27A; source: E. coli Rosetta, purified (His-Trap, gel filtration, thrombin cleavage, gel filtration); not shown: His tag, N-terminal, cleaved; thioredoxin, N-terminal, cleaved) MMEIQMDEGGGVVVYQDDYCSGSVMSARVSGLAGSIYREFERLIHCYDEEVVKELMPLVVNVLENLDSVLSENQEHEVELELLREDNEQLLTQYEREKAL | 215 ± 57.3 nM |  | 
8 | JIP3-N-RH1-lz3 R42A (domain or fragment, mouse, UniProt Q9ESN9-1 1-100, looked up, labelled with NHS-fluorescein (Thermo Fisher Scientific), JIP3, mouse, NP_038959.2, residues 1-100 (N-RH1-lz3); also called JIP3-R42A; source: E. coli Rosetta, purified (His-Trap, gel filtration, thrombin cleavage, gel filtration); not shown: His tag, N-terminal, cleaved; thioredoxin, N-terminal, cleaved) MMEIQMDEGGGVVVYQDDYCSGSVMSERVSGLAGSIYREFEALIHCYDEEVVKELMPLVVNVLENLDSVLSENQEHEVELELLREDNEQLLTQYEREKAL | 90.8 ± 12.6 nM |  | 
9 | JIP3-N-RH1-LZI fragment (domain or fragment, mouse, UniProt Q9ESN9-1 1-187, looked up, labelled with the dye NHS-NT-488 (Protein Labelling Kit Blue-NHS, NanoTemper) in the MST assay, Unlabelled in SEC-MALS; also called JIP3-N-RH1-LZ1; JIP3-Nter; source: E. coli Rosetta, purified (His-Trap, gel filtration, thrombin cleavage, gel filtration); not shown: His tag, N-terminal, cleaved; thioredoxin, N-terminal, cleaved) MMEIQMDEGGGVVVYQDDYCSGSVMSERVSGLAGSIYREFERLIHCYDEEVVKELMPLVVNVLENLDSVLSENQEHEVELELLREDNEQLLTQYEREKALRKQAEEKFIEFEDALEQEKKELQIQVEHYEFQTRQLELKAKNYADQISRLEERESEMKKEYNALHQRHTEMIQTYVEHIERSKMQQV |  |  | stoichiometry N [3]: 2; Kd [4]: 18.8 ± 4 nM
